PMC5451165, “Cellular levels of Grb2 and cytoskeleton stability are correlated in a neurodegenerative scenario” (Disease Models & Mechanisms, 2017)

Tests used:
Details in all cases: partners not purified
[1] = target: T1, Growth factor receptor bound protein 2 (Grb2), endogenous in SHSY-5Y cells (human (endogenous in SHSY-5Y), UniProt P62993 1-217); test: co-IP; IP for Grb2 from cell lysate, blot with anti-NOX4 (reverse: IP for NOX4, blot with anti-Grb2); cells under control (GFP, DMSO, DsRed), AD-inducing (AICD, Aβ, DsRed), reversal (AICD, Aβ, Grb2-DsRed) and Grb2 knock-down (U6-Grb2) conditions
T1 construct: Grb2, endogenous in human neuroblastoma SHSY-5Y cells, precipitated with an anti-Grb2 antibody; source: endogenous, SHSY-5Y cell lysate

[2] = target: T2, Grb2-DsRed construct (UniProt P62993 1-217); test: as above
T2 construct: Grb2 cloned into a DsRed-C1 vector; In the transfected cells endogenous Grb2 is present too, and the anti-Grb2 antibody would precipitate both; A C1 vector usually places the fluorescent protein at the N-terminus; source: SHSY-5Y, transiently transfected, in lysate

[3] = target: T3, Grb2, endogenous in mouse brain (mouse (endogenous in mouse brain), UniProt Q60631 1-217); test: co-IP; Grb2 pull down from protein extracted from paraffinized brain sections of AD (APP/PS1) and WT mice, probed with anti-NOX4 antibody
T3 construct: Grb2, endogenous in mouse brain (APP/PS1 and WT mice), precipitated with an anti-Grb2 antibody; source: endogenous, protein extracted from paraffin-embedded brain sections of APP/PS1 (AD) and WT mice
T3 sequence (Q60631 whole entry): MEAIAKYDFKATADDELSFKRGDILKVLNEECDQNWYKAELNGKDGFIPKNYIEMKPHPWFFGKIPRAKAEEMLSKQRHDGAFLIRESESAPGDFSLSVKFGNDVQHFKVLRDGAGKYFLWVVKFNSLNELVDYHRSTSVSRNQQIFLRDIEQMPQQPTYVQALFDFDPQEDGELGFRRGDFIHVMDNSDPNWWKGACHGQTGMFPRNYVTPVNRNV

fold change of the co-precipitated interaction, AD conditions (AICD + Aβ) relative to control [1] [fold] | fold change of the co-precipitated interaction, reversal condition (AICD + Aβ + Grb2-DsRed) relative to control [2] [fold] | fold change of the co-precipitated interaction, AD mouse brain relative to wild type [3] [fold] | Binder
1.42 | 2.18 | – | NOX4, endogenous in SHSY-5Y cells (natural protein, human (endogenous in SHSY-5Y), UniProt Q9NPH5 1-578, looked up, NOX4, endogenous in human neuroblastoma SHSY-5Y cells, detected with an anti-NOX4 antibody; source: endogenous, SHSY-5Y cell lysate) MAVSWRSWLANEGVKHLCLFIWLSMNVLLFWKTFLLYNQGPEYHYLHQMLGLGLCLSRASASVLNLNCSLILLPMCRTLLAYLRGSQKVPSRRTRRLLDKSRTFHITCGVTICIFSGVHVAAHLVNALNFSVNYSEDFVELNAARYRDEDPRKLLFTTVPGLTGVCMVVVLFLMITASTYAIRVSNYDIFWYTHNLFFVFYMLLTLHVSGGLLKYQTNLDTHPPGCISLNRTSSQNISLPEYFSEHFHEPFPEGFSKPAEFTQHKFVKICMEEPRFQANFPQTWLWISGPLCLYCAERLYRYIRSNKPVTIISVMSHPSDVMEIRMVKENFKARPGQYITLHCPSVSALENHPFTLTMCPTETKATFGVHLKIVGDWTERFRDLLLPPSSQDSEILPFIQSRNYPKLYIDGPFGSPFEESLNYEVSLCVAGGIGVTPFASILNTLLDDWKPYKLRRLYFIWVCRDIQSFRWFADLLCMLHNKFWQENRPDYVNIQLYLSQTDGIQKIIGEKYHALNSRLFIGRPRWKLLFDEIAKYNRGKTVGVFCCGPNSLSKTLHKLSNQNNSYGTRFEYNKESFS
– | – | 1.49 | NOX4, endogenous in mouse brain (natural protein, mouse (endogenous in mouse brain), UniProt Q9JHI8 1-578, looked up, NOX4, endogenous in mouse brain (APP/PS1 and WT mice), detected with an anti-NOX4 antibody; source: endogenous, protein extracted from paraffin-embedded brain sections of APP/PS1 (AD) and WT mice) MAVSWRSWLANEGVKHLCLLIWLSLNVLLFWKTFLLYNQGPEYYYIHQMLGLGLCLSRASASVLNLNCSLILLPMCRTVLAYLRGSQKVPSRRTRRLLDKSKTLHITCGVTICIFSGVHVAAHLVNALNFSVNYSEDFLELNAARYQNEDPRKLLFTTIPGLTGVCMVVVLFLMVTASTYAIRVSNYDIFWYTHNLFFVFYMLLLLHVSGGLLKYQTNVDTHPPGCISLNQTSSQNMSIPDYVSEHFHGSLPRGFSKLEDRYQKTLVKICLEEPKFQAHFPQTWIWISGPLCLYCAERLYRCIRSNKPVTIISVINHPSDVMELRMIKENFKARPGQYIILHCPSVSALENHPFTLTMCPTETKATFGVHFKVVGDWTERFRDLLLPPSSQDSEILPFIHSRNYPKLYIDGPFGSPFEESLNYEVSLCVAGGIGVTPFASILNTLLDDWKPYKLRRLYFIWVCRDIQSFQWFADLLCVLHNKFWQENRPDFVNIQLYLSQTDGIQKIIGEKYHTLNSRLFIGRPRWKLLFDEIAKCNRGKTVGVFCCGPSSISKTLHSLSNRNNSYGTKFEYNKESFS
